In experiment [1] the test system is bisected rat prostatic vas deferens.
The target in experiment [2] is T1, hamster α1B-adrenoceptor (hamster), P18841.
T1 chain: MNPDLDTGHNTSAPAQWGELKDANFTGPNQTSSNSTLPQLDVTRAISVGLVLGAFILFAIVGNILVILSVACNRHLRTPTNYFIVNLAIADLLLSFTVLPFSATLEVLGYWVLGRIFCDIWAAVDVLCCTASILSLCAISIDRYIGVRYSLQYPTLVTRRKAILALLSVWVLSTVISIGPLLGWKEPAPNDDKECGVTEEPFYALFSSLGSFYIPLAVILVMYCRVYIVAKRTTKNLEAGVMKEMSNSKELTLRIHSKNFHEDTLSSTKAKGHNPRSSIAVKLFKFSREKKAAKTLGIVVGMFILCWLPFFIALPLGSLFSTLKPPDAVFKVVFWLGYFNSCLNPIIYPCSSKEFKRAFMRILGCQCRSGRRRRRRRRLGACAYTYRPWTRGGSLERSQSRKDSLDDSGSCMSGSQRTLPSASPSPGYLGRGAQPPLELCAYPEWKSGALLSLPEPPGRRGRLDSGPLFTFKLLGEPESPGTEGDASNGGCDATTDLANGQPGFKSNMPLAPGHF

The target in experiment [3] is T2, rat α1A-adrenoceptor (rat), P43140.
T2 chain: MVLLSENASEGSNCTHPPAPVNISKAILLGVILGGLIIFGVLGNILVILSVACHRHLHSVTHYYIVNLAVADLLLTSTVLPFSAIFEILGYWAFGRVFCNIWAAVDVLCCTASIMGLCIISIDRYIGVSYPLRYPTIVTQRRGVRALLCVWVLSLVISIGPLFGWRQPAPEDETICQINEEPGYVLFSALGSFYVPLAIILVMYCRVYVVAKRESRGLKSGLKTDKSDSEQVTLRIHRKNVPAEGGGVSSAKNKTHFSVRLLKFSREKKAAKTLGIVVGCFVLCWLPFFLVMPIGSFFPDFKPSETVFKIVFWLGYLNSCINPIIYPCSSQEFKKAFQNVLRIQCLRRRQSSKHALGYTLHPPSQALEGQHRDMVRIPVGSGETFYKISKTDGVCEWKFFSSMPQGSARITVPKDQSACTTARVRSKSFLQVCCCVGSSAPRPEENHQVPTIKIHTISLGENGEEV

Experiment [4] deals with T3, rat α1D-adrenoceptor (rat), P23944.
T3 chain: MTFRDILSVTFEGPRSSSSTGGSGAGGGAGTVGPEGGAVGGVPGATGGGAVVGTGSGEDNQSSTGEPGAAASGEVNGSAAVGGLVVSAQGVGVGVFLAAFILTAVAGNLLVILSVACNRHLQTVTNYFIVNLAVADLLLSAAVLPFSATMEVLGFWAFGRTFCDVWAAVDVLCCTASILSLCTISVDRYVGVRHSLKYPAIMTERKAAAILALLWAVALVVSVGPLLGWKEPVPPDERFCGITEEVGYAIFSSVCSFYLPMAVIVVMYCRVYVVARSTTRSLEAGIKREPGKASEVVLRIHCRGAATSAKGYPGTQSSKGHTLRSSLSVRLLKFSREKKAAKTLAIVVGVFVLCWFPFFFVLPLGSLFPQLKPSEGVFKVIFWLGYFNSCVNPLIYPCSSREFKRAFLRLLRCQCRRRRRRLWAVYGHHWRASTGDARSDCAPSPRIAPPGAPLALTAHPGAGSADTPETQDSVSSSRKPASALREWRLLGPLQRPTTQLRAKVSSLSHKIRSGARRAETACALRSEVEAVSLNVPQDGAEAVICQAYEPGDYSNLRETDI

Experiment [5] deals with T1, hamster α1B-adrenoceptor (hamster), ….

Positions of bridges follow the written chain, without caps; N, C: chain ends. Residues, ends and D or L forms follow the SMILES beside them.

As to `CC[C@H](C)[C@@H]1NC(=O)[C@H](CC(C)C)NC(=O)[C@@H]2CSSC[C@@H](C(N)=O)NC(=O)[C@H](Cc3ccccc3)NC(=O)[C@H](CCCCN)NC(=O)[C@H](CCCCN)NC(=O)[C@H](Cc3c[nH]cn3)NC(=O)[C@H](CC(N)=O)NC(=O)[C@H](CCCNC(=N)N)NC(=O)[C@H](CCCNC(=N)N)NC(=O)[C@H](CSSC[C@H](NC(=O)[C@H](CCCNC(=N)N)NC(=O)[C@H](Cc3c[nH]c4ccccc34)NC(=O)[C@H](CC(N)=O)NC(=O)[C@@H](N)Cc3ccccc3)C(=O)N2)NC(=O)[C@H](C)NC(=O)[C@@H]2CCCN2C1=O` [ρ-TIA, FNWRCCLIPACRRNHKKFC] (H-FNWRCCLIPACRRNHKKFC-NH2; disulfide 5-11, 6-19), the IC50 (in general, the concentration that gives 50% inhibition) in experiment [1] was approximately 300 nM.

For the molecule FNWRCCLIPACRRNHKKFC (modifications not checked) [ρ-TIA], the -log Ki in experiment [2] is 7.7; in experiment [3], 7.29; in experiment [4], 7.09. The Ki (as a rule, a measure of affinity in units of concentration, obtained from inhibition or displacement) in experiment [5] is 20 nM.

Source of the values: US6849601B1 (priority 1998, dated 2005).
